T1: BCMAECD-Fc (dimerized, Fc-tagged human BCMA extracellular domain) (human, UniProt Q02223-1 1-54, not fully specified)
T1 chain: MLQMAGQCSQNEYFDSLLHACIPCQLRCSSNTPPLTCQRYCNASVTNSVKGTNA

T2: BCMAECD-His (monomeric, His-tagged human BCMA extracellular domain) (human, UniProt Q02223-1 1-54)
T2 chain: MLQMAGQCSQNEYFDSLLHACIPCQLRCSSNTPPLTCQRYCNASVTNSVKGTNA


What was measured:
[1] = target: T1, BCMAECD-Fc (dimerized, Fc-tagged human …); test: SPR
[2] = target: T2, BCMAECD-His (monomeric, His-tagged …); test: SPR

| koff [1] | koff [2] | Binder |
| --- | --- | --- |
| 0.0108 s⁻¹ | 0.0264 s⁻¹ | Nb2 (anti-BCMA nanobody 2 of the cilta-cel CAR) (VHH) VHH: EVQLVESGGGLVQAGGSLRLSCAASGRTFTMGWFRQAPGKEREFVAAISLSPTLAYYAESVKGRFTISRDNAKNTVVLQMNSLKPEDTALYYCAADRKSVMSIRPDYWGQGTQVTVSS |
| 2.94e-05 s⁻¹ | 6.52e-05 s⁻¹ | Nb1 (anti-BCMA nanobody 1 of the cilta-cel CAR) (VHH) VHH: QVKLEESGGGLVQAGRSLRLSCAASEHTFSSHVMGWFRQAPGKERESVAVIGWRDISTSYADSVKGRFTISRDNAKKTLYLQMNSLKPEDTAVYYCAARRIDAADFDSWGQGTQVTVSS |
